Measurements reported in patent publication US5432264A (priority 1987, dated 1995).
Read-outs that look alike come from different tables or passages of the source. Peptide text beside a SMILES is read from it. * marks the point of attachment. Cbz = O=C(OCc1ccccc1)*; CHN2 = [N-]=[N+]=C*

What was measured:
HSV type 1 (F strain) = assay type: cell-based; settings: for Virus Yield: 48 hrs at 37° C.
[1] = test system: poliovirus (Mahoney strain); assay type: cell-based, poliovirus type 1; settings: for effect on poliovirus replication (in words): inhibitor added to cultivation medium; for Virus Yield: poliovirus type 1, multiplicity 1, 48 hrs at 37° C.
poliovirus type 1 = assay type: cell-based; settings: 24 μg per disc, green monkey kidney cells infected with poliovirus type 1
[2] = test system: herpes simplex virus type 1 (HSV); assay type: cell-based
papain = assay: Papain-inhibiting capacity by titration of active papain, substrate Z-Phe-Arg-NHMec; assay type: biochemical; settings: papain-inhibiting capacity relative to molar cystatin C concentration; range over several preparations
Method: The papain-inhibiting capacity of recombinant 3-des-OH-cystatin C was compared with the corresponding activity of human cystatin C.
The human cystatin C was isolated from urine of patients with mixed glomerular-tubular proteinuria by ultrafiltration, ion-exchange chromatography and gel filtration as described in literature (ref. 2,3) and lyophilized. A total of ten different preparations of human cystatin C and 3-des-OH-cystatin C were tested for their cystein proteinase inhibitory capacity. The cystatin C and 3-des-OH-cystatin C preparations derived from human urine and recombinant technique, respectively, were individually dissolved in 0.15 mol/l ammonium bicarbonate. Cystatin C concentrations of the resulting solutions were determined by phys-ico-chemical and immuno-diffusion and quantitation of amino acids released at hydrolysis in 6 mol/l HCl). The cysteine proteinase inhibiting capacities of these solutions were determined by adding them to a solution of isolated papain (cf. ref. 4), a plant cysteine proteinase widely used as a model for cysteine proteinases in general, and then determining the residual proteolytic activity of the resulting mixtures.
The cysteine proteinase activities of the papain solution and the cystatin C-papain mixtures were determined using the fluorogenic substrate Z-Phe-Arg-NHMec (ref. 5). […]

[3] = molecular target: dipeptidyl peptidases I (F.C 3.4.14.1); assay: Equilibrium constant for dissociation of inhibitor-enzyme complex, dipeptidyl peptidase I; assay type: binding
Method: (§1) Biological activity of 3-des-OH-cystatin C was determined through titration against concentration determined papain. The strength of binding 3-des-OH-cystatin on the cystein proteinases papain (EC 3.4.22.2), cathepsin B (EC 3.4.22.1) and dipeptidyl peptidases I (F.C 3.4.14.1) was determined. The equilibrium constant for dissociation of 3-des-OH-cystatinC enzyme complex (0.005 nM, 0.50 nM and 3.1 nM) was within the experimental error limit identical with the equilibrium constant for human cystatin C enzyme complex (<0.005 nM, 0.27 nM and 6.3 nM For papan, cathepsin B and dipeptidyl peptidases I, respectively).

[4] = molecular target: cathepsin B (EC 3.4.22.1); assay: Equilibrium constant for dissociation of inhibitor-enzyme complex, cathepsin B; assay type: binding
Method: as §1

Molecule	inhibition of HSV replication (HSV type 1 (F strain))	Virus Yield (HSV type 1 (F strain))	effect on poliovirus replication (in words) [1]	Virus Yield ([1]; 0.4 mM Z-LVG-CHN2 in 1% DMSO)	inhibition of plaque formation around disc (poliovirus type 1)	inhibition of plaque formation around disc [2]	effect on HSV replication (in words) (HSV type 1 (F strain))	molar inhibitory capacity (papain)	Kd [3] [nM]	Virus Yield ([1]; 0.10 mM cystatin C in MEM)	Kd [4] [nM]
CC(C)C[C@H](NC(=O)OCc1ccccc1)C(=O)N[C@H](C(=O)NCC(=O)C=[N+]=[N-])C(C)C [Z-LVG-CHN2, N-benzyloxycarbonyl-leucyl-valyl-glycine diazomethyl ketone, reference compound] (Cbz-Leu-Val-Gly-CHN2)	> 99.9	1.4 × 10^3	hardly significant	4.8 × 10^7 pfu/ml	no inhibition of plaque formation	marked inhibition zones	–	–	–	–	–
3-des-OH-cystatin C: Recombinant 120 amino acid human cystatin C with non-hydroxylated Pro at position 3, expressed in E. coli (protein, UniProt P01034 27-146, looked up, non-hydroxylated Pro3, Recombinant 120 amino acid human cystatin C with non-hydroxylated Pro at position 3, expressed in E. coli) Cystatin-C: SSPGKPPRLVGGPMDASVEEEGVRRALDFAVGEYNKASNDMYHSRALQVVRARKQIVAGVNYFLDVELGRTTCTKTQPNLDNCPFHDQPHLKRKAFCSFQIYAVPWQGTMTLSKSTCQDA	–	2.4 × 10^3	no influence on the replication of poliovirus	–	–	–	potent inhibitor of HSV replication	83-98%	3.1	1.1 × 10^8 pfu/ml	0.5
human cystatin C: Native cystatin C isolated from human urine; mixture of 3-OH-Pro form and 3-des-OH form (protein, UniProt P01034 27-146, looked up) Cystatin-C: SSPGKPPRLVGGPMDASVEEEGVRRALDFAVGEYNKASNDMYHSRALQVVRARKQIVAGVNYFLDVELGRTTCTKTQPNLDNCPFHDQPHLKRKAFCSFQIYAVPWQGTMTLSKSTCQDA	–	–	–	–	–	–	–	5-55%	6.3	–	0.27
